Assay results: publication doi:10.1101/2022.05.31.494262

Molecular target: SARS-CoV-2 Nucleocapsid (N) protein, wildtype, SUMO1 modified (SARS-CoV-2 | not stated)
Assay: FRET or BRET

Substance: SARS-CoV-2 Nucleocapsid (N) protein, wildtype, SUMO1 modified
- Kd: 460 nM
